Reference: the supplement of paper PMC9112550, “Optimization of the antimicrobial peptide Bac7 by deep mutational scanning” (BMC Biology, 2022)

System: Escherichia coli TOP10
Test: shrunken log2 fold change of peptide-encoding DNA abundance (4.5 h post-induction vs induction); higher = less antimicrobial activity (less host growth inhibition)
Settings: time post-induction: 4.5 h; library: site-saturation at positions 5, 18, 19, 20
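Also: peptides expressed intracellularly from a pBAD plasmid library in pooled LB shake-flask culture, induced with 0.3% L-arabinose, DNA abundance read by NGS, three biological replicates, DESeq2 with apeglm shrinkage.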

Sequence | shrunken log2 fold change
RRIRARPPRLPRPRPRPPIAPRP | 0.534
RRIRARPPRLPRPRPRPPINPRP | -0.192
RRIRARPPRLPRPRPRPPIWPRP | 0.507
RRIRARPPRLPRPRPRPPMSPRP | 0.414
RRIRARPPRLPRPRPRPPPAPRP | 1.25
RRIRARPPRLPRPRPRPPRAPRP | 0.932
RRIRARPPRLPRPRPRPPRFPRP | 1.13
RRIRARPPRLPRPRPRPPSEPRP | 1.17
RRIRARPPRLPRPRPRPPSLPRP | 0.513
RRIRARPPRLPRPRPRPPWAPRP | 0.576
RRIRARPPRLPRPRPRPPWMPRP | 0.463
RRIRARPPRLPRPRPRPPWQPRP | 0.675
RRIRARPPRLPRPRPRPPYWPRP | 0.376
RRIRARPPRLPRPRPRPQAFPRP | -0.323
RRIRARPPRLPRPRPRPQAPPRP | 0.238
RRIRARPPRLPRPRPRPQARPRP | 0.233
RRIRARPPRLPRPRPRPQCKPRP | -0.077
RRIRARPPRLPRPRPRPQDNPRP | -0.0337
RRIRARPPRLPRPRPRPQDSPRP | -0.0459
RRIRARPPRLPRPRPRPQEHPRP | 0.515
RRIRARPPRLPRPRPRPQEPPRP | 0.744
RRIRARPPRLPRPRPRPQFTPRP | 0.0535
RRIRARPPRLPRPRPRPQHLPRP | -0.0998
RRIRARPPRLPRPRPRPQKEPRP | -0.0202
RRIRARPPRLPRPRPRPQLEPRP | 0.63

Sequence | shrunken log2 fold change
RRIRARPPRLPRPRPRPQLGPRP | -0.0732
RRIRARPPRLPRPRPRPQLQPRP | 0.426
RRIRARPPRLPRPRPRPQLVPRP | 0.308
RRIRARPPRLPRPRPRPQLWPRP | 0.569
RRIRARPPRLPRPRPRPQMAPRP | 0.274
RRIRARPPRLPRPRPRPQMKPRP | 0.433
RRIRARPPRLPRPRPRPQPIPRP | 0.16
RRIRARPPRLPRPRPRPQQAPRP | 0.308
RRIRARPPRLPRPRPRPQSDPRP | 0.0175
RRIRARPPRLPRPRPRPQSRPRP | -0.112
RRIRARPPRLPRPRPRPQTWPRP | 0.279
RRIRARPPRLPRPRPRPQVAPRP | 0.591
RRIRARPPRLPRPRPRPQVCPRP | 0.0435
RRIRARPPRLPRPRPRPQVLPRP | -0.0334
RRIRARPPRLPRPRPRPQWYPRP | -0.523
RRIRARPPRLPRPRPRPQYRPRP | -0.208
RRIRARPPRLPRPRPRPRDQPRP | 0.499
RRIRARPPRLPRPRPRPRDWPRP | 0.577
RRIRARPPRLPRPRPRPRFIPRP | -0.259
RRIRARPPRLPRPRPRPRGIPRP | 0.488
RRIRARPPRLPRPRPRPRHIPRP | -0.177
RRIRARPPRLPRPRPRPRIKPRP | -0.00918
RRIRARPPRLPRPRPRPRISPRP | 0.0223
RRIRARPPRLPRPRPRPRLGPRP | 0.606
RRIRARPPRLPRPRPRPRLKPRP | 0.547

Sequence | shrunken log2 fold change
RRIRARPPRLPRPRPRPRMCPRP | 0.339
RRIRARPPRLPRPRPRPRMKPRP | 0.457
RRIRARPPRLPRPRPRPRMSPRP | -0.186
RRIRARPPRLPRPRPRPRNEPRP | 0.557
RRIRARPPRLPRPRPRPRNLPRP | -0.0356
RRIRARPPRLPRPRPRPRPFPRP | 0.562
RRIRARPPRLPRPRPRPRSEPRP | 0.42
RRIRARPPRLPRPRPRPRWTPRP | 0.145
RRIRARPPRLPRPRPRPRYYPRP | -0.116
RRIRARPPRLPRPRPRPSCTPRP | 0.44
RRIRARPPRLPRPRPRPSCVPRP | 0.157
RRIRARPPRLPRPRPRPSEAPRP | 0.52
RRIRARPPRLPRPRPRPSEHPRP | -0.301
RRIRARPPRLPRPRPRPSESPRP | 0.0591
RRIRARPPRLPRPRPRPSFYPRP | -0.155
RRIRARPPRLPRPRPRPSHFPRP | -0.0734
RRIRARPPRLPRPRPRPSHNPRP | -0.245
RRIRARPPRLPRPRPRPSHSPRP | -0.101
RRIRARPPRLPRPRPRPSICPRP | 0.154
RRIRARPPRLPRPRPRPSISPRP | 0.0682
RRIRARPPRLPRPRPRPSKKPRP | 0.23
RRIRARPPRLPRPRPRPSQNPRP | -0.25
RRIRARPPRLPRPRPRPSQYPRP | -0.00629
RRIRARPPRLPRPRPRPSRLPRP | 0.487
RRIRARPPRLPRPRPRPSRVPRP | 2.84

Sequence | shrunken log2 fold change
RRIRARPPRLPRPRPRPSSDPRP | 0.301
RRIRARPPRLPRPRPRPSSGPRP | 0.412
RRIRARPPRLPRPRPRPSSIPRP | 0.101
RRIRARPPRLPRPRPRPSSVPRP | -0.0486
RRIRARPPRLPRPRPRPSTNPRP | 0.0112
RRIRARPPRLPRPRPRPSTWPRP | -0.0645
RRIRARPPRLPRPRPRPTANPRP | 0.401
RRIRARPPRLPRPRPRPTASPRP | 0.74
RRIRARPPRLPRPRPRPTDFPRP | -0.000766
RRIRARPPRLPRPRPRPTHRPRP | 0.46
RRIRARPPRLPRPRPRPTKFPRP | 0.0943
RRIRARPPRLPRPRPRPTLDPRP | 0.777
RRIRARPPRLPRPRPRPTSGPRP | 0.343
RRIRARPPRLPRPRPRPTSQPRP | 0.211
RRIRARPPRLPRPRPRPTSVPRP | 0.52
RRIRARPPRLPRPRPRPTTEPRP | 0.443
RRIRARPPRLPRPRPRPTTWPRP | 0.423
RRIRARPPRLPRPRPRPTVKPRP | 0.143
RRIRARPPRLPRPRPRPTVPPRP | 0.56
RRIRARPPRLPRPRPRPTWDPRP | 0.604
RRIRARPPRLPRPRPRPTWFPRP | 0.225
RRIRARPPRLPRPRPRPTWTPRP | 0.425
RRIRARPPRLPRPRPRPTYLPRP | -0.023
RRIRARPPRLPRPRPRPVALPRP | 0.411
RRIRARPPRLPRPRPRPVCKPRP | 0.195

Sequence | shrunken log2 fold change
RRIRARPPRLPRPRPRPVDEPRP | 0.33
RRIRARPPRLPRPRPRPVDHPRP | -0.0253
RRIRARPPRLPRPRPRPVDIPRP | 0.135
RRIRARPPRLPRPRPRPVEIPRP | 0.0505
RRIRARPPRLPRPRPRPVEWPRP | 0.544
RRIRARPPRLPRPRPRPVFIPRP | -0.201
RRIRARPPRLPRPRPRPVFSPRP | -0.0817
RRIRARPPRLPRPRPRPVHWPRP | 0.579
RRIRARPPRLPRPRPRPVIRPRP | -0.055
RRIRARPPRLPRPRPRPVLHPRP | 0.288
RRIRARPPRLPRPRPRPVMMPRP | 0.0914
RRIRARPPRLPRPRPRPVNPPRP | -0.00864
RRIRARPPRLPRPRPRPVNSPRP | -0.0786
RRIRARPPRLPRPRPRPVREPRP | 1.01
RRIRARPPRLPRPRPRPVRRPRP | 0.723
RRIRARPPRLPRPRPRPVTRPRP | 0.35
RRIRARPPRLPRPRPRPVTVPRP | 2.71
RRIRARPPRLPRPRPRPVVNPRP | 0.346
RRIRARPPRLPRPRPRPVVSPRP | 0.188
RRIRARPPRLPRPRPRPVYMPRP | -0.436
RRIRARPPRLPRPRPRPWAGPRP | 0.233
RRIRARPPRLPRPRPRPWEEPRP | 0.271
RRIRARPPRLPRPRPRPWFGPRP | 0.118
RRIRARPPRLPRPRPRPWFNPRP | -0.142
RRIRARPPRLPRPRPRPWGFPRP | 0.206

Sequence | shrunken log2 fold change
RRIRARPPRLPRPRPRPWGTPRP | 0.211
RRIRARPPRLPRPRPRPWGWPRP | 0.649
RRIRARPPRLPRPRPRPWHNPRP | -0.0874
RRIRARPPRLPRPRPRPWIAPRP | -0.0071
RRIRARPPRLPRPRPRPWIHPRP | -0.264
RRIRARPPRLPRPRPRPWLKPRP | -0.0421
RRIRARPPRLPRPRPRPWMRPRP | 0.263
RRIRARPPRLPRPRPRPWNYPRP | -0.625
RRIRARPPRLPRPRPRPWQDPRP | 0.0326
RRIRARPPRLPRPRPRPWQYPRP | -0.123
RRIRARPPRLPRPRPRPWRAPRP | 0.338
RRIRARPPRLPRPRPRPWRRPRP | 0.267
RRIRARPPRLPRPRPRPWRYPRP | -0.163
RRIRARPPRLPRPRPRPWTDPRP | -0.0701
RRIRARPPRLPRPRPRPWTIPRP | -0.0653
RRIRARPPRLPRPRPRPWVAPRP | 0.285
RRIRARPPRLPRPRPRPWVVPRP | 0.0153
RRIRARPPRLPRPRPRPWWCPRP | -0.0725
RRIRARPPRLPRPRPRPWWNPRP | -0.108
RRIRARPPRLPRPRPRPYCQPRP | -0.138
RRIRARPPRLPRPRPRPYCVPRP | 0.118
RRIRARPPRLPRPRPRPYCYPRP | -0.227
RRIRARPPRLPRPRPRPYDAPRP | 0.0611
RRIRARPPRLPRPRPRPYDCPRP | -0.131
RRIRARPPRLPRPRPRPYEAPRP | -0.222
